# Substitutions are numbered along the chain they refer to.
# T1: Nuclease H L54R (synthetic construct, L54R)
# T1 chain: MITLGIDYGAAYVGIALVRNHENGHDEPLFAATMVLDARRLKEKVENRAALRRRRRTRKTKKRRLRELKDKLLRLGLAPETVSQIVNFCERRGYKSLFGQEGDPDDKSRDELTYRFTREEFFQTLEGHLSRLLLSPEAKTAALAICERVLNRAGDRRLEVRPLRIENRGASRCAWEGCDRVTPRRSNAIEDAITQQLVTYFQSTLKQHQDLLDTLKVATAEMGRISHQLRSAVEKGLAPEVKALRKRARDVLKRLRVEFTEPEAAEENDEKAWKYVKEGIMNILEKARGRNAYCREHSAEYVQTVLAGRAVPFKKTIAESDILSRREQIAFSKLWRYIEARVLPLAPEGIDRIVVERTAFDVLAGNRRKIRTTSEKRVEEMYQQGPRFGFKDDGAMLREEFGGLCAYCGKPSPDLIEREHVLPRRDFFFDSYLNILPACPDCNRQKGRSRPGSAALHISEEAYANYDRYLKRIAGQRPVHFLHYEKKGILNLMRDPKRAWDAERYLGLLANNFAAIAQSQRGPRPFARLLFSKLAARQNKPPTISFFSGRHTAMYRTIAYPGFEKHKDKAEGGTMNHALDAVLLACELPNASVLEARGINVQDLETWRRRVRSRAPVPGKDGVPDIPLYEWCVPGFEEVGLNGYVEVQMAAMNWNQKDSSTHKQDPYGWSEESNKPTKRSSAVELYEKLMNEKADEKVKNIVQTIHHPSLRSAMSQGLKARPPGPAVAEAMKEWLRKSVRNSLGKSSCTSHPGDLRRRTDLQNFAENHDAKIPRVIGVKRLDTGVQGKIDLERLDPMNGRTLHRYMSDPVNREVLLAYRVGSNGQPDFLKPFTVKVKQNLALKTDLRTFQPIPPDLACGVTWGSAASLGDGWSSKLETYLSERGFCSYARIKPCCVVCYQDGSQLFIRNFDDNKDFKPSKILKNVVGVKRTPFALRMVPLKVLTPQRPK
# T2: Nuclease H L323R (synthetic construct, L323R)
# T2 chain: T1 chain with R54L, L323R
# B1: H AAVS1-T5 RNA guide ; AAVS1-T5 target (H) (ssRNA ; dsDNA)
# RNA: GGCUAUAAUCCAUGCUGACCGUUUCAAUCAACCUGAUCUCUCUGCUUGCGCUGCAGGCUUCAUAAGAUCAGUAGGUUGAAAAGAGCAUCCGUCCGACAUGCACUCCGGGAUGGGGCAGUCCCGGCUCUUGCGGUUCCCGAUGCAGUUAUGUGUCCGCGGAACACGGUGUCGGACACGUCGCAAGACAGGAUGUGAGCCCAUUAUCCACAUUAGGAUCAAUGUACGCAUGAGCAGUCCGCAAUGCCGGGGACGCU
# DNA 1: GGCTATAATCCATGCTGACC
# DNA 2: GGTCAGCATGGATTATAGCC
# Legend:
# [1] = target: T1, Nuclease H L54R; assay: cell_activity; HEK293T; PAM AAC; conditions: tags: N-term SV40 NLS, XTEN linker + C-term nucleoplasmin NLS
# Protocol: (§1) HEK293T cells were transfected with plasmids expressing the Nuclease H polypeptides and the gRNAs provided herein following the methods provided in Example 1 above. Gene editing efficiencies were determined by NGS following the methods also provided in Example 1. The NGS results were analyzed also following the methods provided in Example 1 above.
# (§2) Indel ratios, referring to the percentage of NGS reads comprising indels, were calculated for the reference and for each variant. The indel ratios used for fold change calculations were the average of two technical replicates. To then calculate fold change in indel ratios, the indel ratio for each variant was divided by the indel ratio for the reference. […] Numbering is relative to the reference nuclease of SEQ ID NO: 64 (i.e., without an NLS).
# [2] = target: T2, Nuclease H L323R; assay: cell_activity; HEK293T; PAM AAC; conditions: tags: N-term SV40 NLS, XTEN linker + C-term nucleoplasmin NLS
# Protocol: as §1, §2
binder,measurement,setting,value
B1,fold change in indel ratio vs reference,[1],16.6 fold indel vs reference
same,fold change in indel ratio vs reference,[2],5.91 fold indel vs reference

# — US20260275312, “CRISPR NUCLEASE POLYPEPTIDES AND GENE EDITING SYSTEMS COMPRISING SUCH” (ARBOR BIOTECHNOLOGIES, INC., published 2026)
